Drawing on patent publication US20020110853A1, this text covers BrdU incorporation of FLAG-TWEAKR expressing HUVEC, against goat anti-mouse IgG alone and BrdU incorporation of FLAG-TWEAKR expressing HUVEC, against vector-only transfected HUVEC with the cross-linking complex for one substance.

The target in the experiment is FLAG-TWEAKR, expressed on transfected HUVEC (human) (UniProt Q9NP84). Nature of the experiment: cell-based or functional assay.
Sequence of FLAG-TWEAKR, expressed on transfected HUVEC (human) (Q9NP84 28-129): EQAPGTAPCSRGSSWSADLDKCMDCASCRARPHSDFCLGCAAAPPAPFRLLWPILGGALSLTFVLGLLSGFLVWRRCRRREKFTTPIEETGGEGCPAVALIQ

The substance M2 anti-FLAG monoclonal antibody registered a BrdU incorporation of FLAG-TWEAKR expressing HUVEC, against goat anti-mouse IgG alone of 3 fold and a BrdU incorporation of FLAG-TWEAKR expressing HUVEC, against vector-only transfected HUVEC with the cross-linking complex of 6 fold.
